Measured values reported in the supplement of paper PMC11246515.
± gives the standard deviation of the averaged measurements.

Assay: total protein half-life in vivo (active degradation + dilution); higher = more stable protein
[1] = E. coli NCM3722 delta-clpP delta-lon delta-hslV, growth: N-lim chemostat, doubling time 6 h
[2] = E. coli NCM3722 delta-hslV, growth: N-lim chemostat, doubling time 6 h
[3] = E. coli NCM3722 delta-smpB, growth: N-lim chemostat, doubling time 6 h
[4] = wild type E. coli NCM3722, growth: C-lim chemostat, doubling time 3 h
[5] = wild type E. coli NCM3722, growth: C-lim chemostat, doubling time 6 h
[6] = wild type E. coli NCM3722, growth: C-lim chemostat, doubling time 12 h
[7] = wild type E. coli NCM3722, growth: N-lim chemostat, doubling time 12 h
[8] = wild type E. coli NCM3722, growth: P-lim chemostat, doubling time 6 h
[9] = wild type E. coli NCM3722, growth: P-lim chemostat, doubling time 12 h
[10] = E. coli NCM3722 delta-clpP, growth: N-lim chemostat, doubling time 6 h
[11] = E. coli NCM3722 delta-lon, growth: N-lim chemostat, doubling time 6 h
[12] = wild type E. coli NCM3722, growth: N-lim chemostat, doubling time 6 h

Row | Sequence | total protein half-life in vivo [1] [h] | total protein half-life in vivo [2] [h] | total protein half-life in vivo [3] [h] | total protein half-life in vivo [4] [h] | total protein half-life in vivo [5] [h] | total protein half-life in vivo [6] [h] | total protein half-life in vivo [7] [h] | total protein half-life in vivo [8] [h] | total protein half-life in vivo [9] [h] | total protein half-life in vivo [10] [h] | total protein half-life in vivo [11] [h] | total protein half-life in vivo [12] [h]
1 | MDFSLTEEQELLLASIRELITTNFPEEYFRTCDQNGTYPREFMRALADNGISMLGVPEEFGGIPADYVTQMLALMEVSKCGAPAFLITNGQCIHSMRRFGSAEQLRKTAESTLETGDPAYALALTEPGAGSDNNSATTTYTRKNGKVYINGQKTFITGAKEYPYMLVLARDPQPKDPKKAFTLWWVDSSKPGIKINPLHKIGWHMLSTCEVYLDNVEVEESDMVGEEGMGFLNVMYNFEMERLINAARSTGFAECAFEDAARYANQRIAFGKPIGHNQMIQEKLALMAIKIDNMRNMVLKVAWQADQHQSLRTSAALAKLYCARTAMEVIDDAIQIMGGLGYTDEARVSRFWRDVRCERIGGGTDEIMIYVAGRQILKDYQNK [P0A9U8] | 6.36 ± 0.59 | 1.41 | 1.03 | 2.23 | > 8 | 2.25 | 2.165 ± 0.02 | 0.772 | 2.42 | – | – | –
2 | MQEGQNRKTSSLSILAIAGVEPYQEKPGEEYMNEAQLAHFRRILEAWRNQLRDEVDRTVTHMQDEAANFPDPVDRAAQEEEFSLELRNRDRERKLIKKIEKTLKKVEDEDFGYCESCGVEIGIRRLEARPTADLCIDCKTLAEIREKQMAG [P0ABS1] | 6.12 ± 0.34 | 3.53 ± 0.55 | 3.12 ± 0.035 | 1.68 ± 0.14 | 3.27 ± 0.28 | 5.07 ± 0.47 | 7.03 ± 0.073 | 3.71 ± 0.66 | 9.06 ± 0.61 | 6.26 ± 1.2 | 3.95 ± 0.44 | 3.65 ± 0.58
3 | MEYQLTLNWPDFLERHWQKRPVVLKRGFNNFIDPISPDELAGLAMESEVDSRLVSHQDGKWQVSHGPFESYDHLGETNWSLLVQAVNHWHEPTAALMRPFRELPDWRIDDLMISFSVPGGGVGPHLDQYDVFIIQGTGRRRWRVGEKLQMKQHCPHPDLLQVDPFEAIIDEELEPGDILYIPPGFPHEGYALENAMNYSVGFRAPNTRELISGFADYVLQRELGGNYYSDPDVPPRAHPADVLPQEMDKLREMMLELINQPEHFKQWFGEFISQSRHELDIAPPEPPYQPDEIYDALKQGEVLVRLGGLRVLRIGDDVYANGEKIDSPHRPALDALASNIALTAENFGDALEDPSFLAMLAALVNSGYWFFEG | 5 ± 0.51 | 4.45 ± 0.092 | 4.63 ± 0.28 | 3.12 ± 0.54 | 5.25 ± 0.26 | 10.1 ± 1 | 8.11 ± 0.15 | 6.71 ± 1.1 | 13 ± 0.99 | 5.08 ± 0.63 | 4.25 ± 0.14 | 4.6 ± 0.32
4 | MKFELDTTDGRARRGRLVFDRGVVETPCFMPVGTYGTVKGMTPEEVEATGAQIILGNTFHLWLRPGQEIMKLHGDLHDFMQWKGPILTDSGGFQVFSLGDIRKITEQGVHFRNPINGDPIFLDPEKSMEIQYDLGSDIVMIFDECTPYPADWDYAKRSMEMSLRWAKRSRERFDSLGNKNALFGIIQGSVYEDLRDISVKGLVDIGFDGYAVGGLAVGEPKADMHRILEHVCPQIPADKPRYLMGVGKPEDLVEGVRRGIDMFDCVMPTRNARNGHLFVTDGVVKIRNAKYKSDTGPLDPECDCYTCRNYSRAYLHHLDRCNEILGARLNTIHNLRYYQRLMAGLRKAIEEGKLESFVTDFYQRQGREVPPLNVD [P0A847] | 5.511 ± 0.011 | 4.74 ± 0.42 | 4.12 ± 0.42 | 3.176 ± 0.02 | 6.4 ± 0.068 | 10.9 ± 0.33 | 9.05 ± 0.3 | 6.03 ± 0.7 | 13.7 ± 1.2 | 5.15 ± 0.27 | – | 5.08 ± 0.26
5 | MSNAITMGIFWHLIGAASAACFYAPFKKVKKWSWETMWSVGGIVSWIILPWAISALLLPNFWAYYSSFSLSTRLPVFLFGAMWGIGNINYGLTMRYLGMSMGIGIAIGITLIVGTLMTPIINGNFDVLISTEGGRMTLLGVLVALIGVGIVTRAGQLKERKMGIKAEEFNLKKGLVLAVMCGIFSAGMSFAMNAAKPMHEAAAALGVDPLYVALPSYVVIMGGGAIINLGFCFIRLAKVKDLSLKADFSLAKSLIIHNVLLSTLGGLMWYLQFFFYAWGHARIPAQYDYISWMLHMSFYVLCGGIVGLVLKEWNNAGRRPVTVLSLGCVVIIVAANIVGIGMAN | – | – | – | – | – | – | 7.44 | – | – | – | – | –
6 | MPIRVPDELPAVNFLREENVFVMTTSRASGQEIRPLKVLILNLMPKKIETENQFLRLLSNSPLQVDIQLLRIDSRESRNTPAEHLNNFYCNFEDIQDQNFDGLIVTGAPLGLVEFNDVAYWPQIKQVLEWSKDHVTSTLFVCWAVQAALNILYGIPKQTRTEKLSGVYEHHILHPHALLTRGFDDSFLAPHSRYADFPAALIRDYTDLEILAETEEGDAYLFASKDKRIAFVTGHPEYDAQTLAQEFFRDVEAGLDPDVPYNYFPHNDPQNTPRASWRSHGNLLFTNWLNYYVYQITPYDLRHMNPTLD | 3.26 ± 0.67 | 1.61 ± 0.2 | 1.52 ± 0.29 | 2.61 ± 0.097 | 3.27 ± 0.32 | 4.92 ± 0.52 | 2.14 ± 0.23 | 3.94 ± 0.39 | 6.4 ± 0.19 | 1.85 ± 0.45 | 1.87 ± 0.033 | 1.58 ± 0.093
7 | MNTNVFRLLLLGSLFSLSACVQQSEVRQMKHSVSTLNQEMTQLNQETVKITQQNRLNAKSSSGVYLLPGAKTPARLESQIGTLRMSLVNITPDADGTTLTLRIQGESNDPLPAFSGTVEYGQIQGTIDNFQEINVQNQLINAPASVLAPSDVDIPLQLKGISVDQLGFVRIHDIQPVMQ | 6.62 ± 0.76 | – | 6.22 ± 0.65 | – | 5.54 ± 0.6 | 11.3 | 13.9 | 6.02 ± 0.69 | 12.7 ± 1.5 | – | 6.77 ± 0.76 | 5.64 ± 1.1
8 | MKTIFTVGAVVLATCLLSGCVNEQKVNQLASNVQTLNAKIARLEQDMKALRPQIYAAKSEANRANTRLDAQDYFDCLRCLRMYAE | 7.01 | – | 5.17 | – | – | 6.54 | – | – | > 16 | – | – | –
